Test results from paper doi:10.1101/2021.04.25.441346 (bioRxiv, 2021).

Molecular target: T1, GST-AFF1 (AUXIN RESPONSE FACTOR F-BOX1, At3g49150) (Arabidopsis thaliana, UniProt Q9M3B7 1-630)
T1 sequence (looked up): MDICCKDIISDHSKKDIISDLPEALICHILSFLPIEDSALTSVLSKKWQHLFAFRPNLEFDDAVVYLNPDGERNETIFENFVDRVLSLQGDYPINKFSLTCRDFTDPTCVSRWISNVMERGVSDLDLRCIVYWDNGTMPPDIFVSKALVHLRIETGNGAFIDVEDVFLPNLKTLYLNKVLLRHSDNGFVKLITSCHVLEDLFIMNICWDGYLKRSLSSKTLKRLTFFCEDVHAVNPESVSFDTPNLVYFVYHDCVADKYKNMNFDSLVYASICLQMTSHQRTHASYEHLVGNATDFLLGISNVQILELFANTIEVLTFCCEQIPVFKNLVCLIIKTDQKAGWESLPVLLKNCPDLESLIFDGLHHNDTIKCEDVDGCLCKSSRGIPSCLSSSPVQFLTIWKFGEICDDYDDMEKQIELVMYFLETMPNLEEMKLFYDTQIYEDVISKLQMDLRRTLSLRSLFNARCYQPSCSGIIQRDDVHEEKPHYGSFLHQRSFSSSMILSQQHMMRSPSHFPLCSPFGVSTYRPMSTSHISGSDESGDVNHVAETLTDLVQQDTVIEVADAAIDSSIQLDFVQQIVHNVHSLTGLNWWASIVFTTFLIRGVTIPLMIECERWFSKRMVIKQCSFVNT
Assay: pull-down

B1: His-ASK1 (ARABIDOPSIS SKP1-LIKE 1) (natural protein, Arabidopsis thaliana, UniProt Q39255 1-160, looked up)
chain: MSAKKIVLKSSDGESFEVEEAVALESQTIAHMVEDDCVDNGVPLPNVTSKILAKVIEYCKRHVEAAASKAEAVEGAATSDDDLKAWDADFMKIDQATLFELILAANYLNIKNLLDLTCQTVADMIKGKTPEEIRTTFNIKNDFTPEEEEEVRRENQWAFE
Question: Does B1 bind?
Answer: Result: binds
